# Numbering of substitutions follows the chain as printed. Several values for one entry are separate records, joined by “and”; a condition that tells them apart may be missing. Identical values can stand only once.
# Legend:
# Assay type in all cases: cell-based
# C3aR L82^2.64A = target: T1, C3aR L82^2.64A (Homo sapiens, UniProt Q16581, L82A); assay: GloSensor-based cAMP assay, C3aR mutant L82A; details: for cAMP response (% Forskolin): L822.64A, single replicates
# T1 construct: expressed in transfected cells; host or cells: HEK293T
# T1 sequence (Q16581 1-482 L82A): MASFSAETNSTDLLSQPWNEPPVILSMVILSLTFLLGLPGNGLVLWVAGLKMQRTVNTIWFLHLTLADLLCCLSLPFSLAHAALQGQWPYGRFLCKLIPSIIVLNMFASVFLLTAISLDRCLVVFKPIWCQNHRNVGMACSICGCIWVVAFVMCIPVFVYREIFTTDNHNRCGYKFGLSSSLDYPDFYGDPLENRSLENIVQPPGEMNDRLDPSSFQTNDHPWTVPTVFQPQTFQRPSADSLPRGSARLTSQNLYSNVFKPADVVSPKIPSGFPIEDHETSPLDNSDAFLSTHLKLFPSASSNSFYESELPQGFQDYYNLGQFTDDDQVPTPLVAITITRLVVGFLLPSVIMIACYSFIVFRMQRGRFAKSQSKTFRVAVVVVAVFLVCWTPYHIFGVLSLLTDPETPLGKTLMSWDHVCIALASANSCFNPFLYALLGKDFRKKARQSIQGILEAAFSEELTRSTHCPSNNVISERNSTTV
# Experimental: (§1) HEK293T cells were seeded on 6-well plates (NEST) and transfected with pGlosensor™-22F plasmids (Promega) and pcDNA3.1 plasmids encoding C3aR or its mutants an with N-terminal FLAG tag. After 48 h, cells were detached with Accutase solution (Sigma-Aldrich) and washed with PBS, and resuspended in assay buffer (CO2-independent medium with 0.5 mg mL^−1D-luciferin). 100,000–200,000 cells were seeded on 96-well white bottom plates (SPL) and incubated at 37 °C for 45 min followed by 45 min incubation at room temperature. After 90 min of incubation, basal luminescence signals were recorded. In total, 25 μl of test ligand with various concentrations and 1 μM Forskolin (Sigma-Aldrich) were treated to the cells and luminescence signals were measured by Tristar 2 LB 942 multimode reader (Berthold). […] Relative luminescence unit (%) was calculated with the signal of wells treated with vehicle as 0% and the signal of wells treated with 1 μM Forskolin as 100% (DiRaddo et al, [2014]). Nonlinear regression was performed using a three-parameter logistic equation.
# C3aR M106^3.36A = target: T2, C3aR M106^3.36A (Homo sapiens, UniProt Q16581, M106A); assay: GloSensor-based cAMP assay, C3aR mutant M106A; details: for cAMP response (% Forskolin): single replicates
# T2 construct: expressed in transfected cells; host or cells: HEK293T
# T2 sequence (Q16581 1-482 M106A): T1 sequence (Q16581 1-482 L82A) with A82L, M106A
# Experimental: as §1
# C3aR Y174^ECL2A = target: T3, C3aR Y174^ECL2A (Homo sapiens, UniProt Q16581, Y174A); assay: GloSensor-based cAMP assay, C3aR mutant Y174A; details: for cAMP response (% Forskolin): Y174ECL2A, single replicates
# T3 construct: expressed in transfected cells; host or cells: HEK293T
# T3 sequence (Q16581 1-482 Y174A): T1 sequence (Q16581 1-482 L82A) with A82L, Y174A
# Experimental: as §1
# [1] = Dunnett's multiple comparisons test, WT minus mutant
substance,measurement,setting,value
"C3a: anaphylatoxin C3a, natural peptide ligand of C3aR (a 77-amino acid peptide), Sigma-Aldrich","Mean Diff. of pIC50, WT vs. L82A",C3aR L82^2.64A; [1],-0.166
same,ΔpIC50 ± SE of Diff.,C3aR L82^2.64A; L82^2.64A relative to WT C3aR,0.17 ± 0.05
same,IC50,"C3aR L82^2.64A; L82^2.64A, dose-response plot, read-out: IC50",1.98 nM
same,pIC50 (Replicate),"C3aR L82^2.64A; L82^2.64A, individual replicates",8.88 and 8.82 and 8.71 and 8.44
same,pIC50 ± SEM (Mean),"C3aR L82^2.64A; L82^2.64A, mean of independent experiments",8.71 ± 0.10 and 8.71
same,cAMP response (% Forskolin),C3aR L82^2.64A; Log[C3a (M)] -7,6.88 % Forskolin and 9.71 % Forskolin and 10.14 % Forskolin and 11.39 % Forskolin
same,cAMP response (% Forskolin),C3aR L82^2.64A; Log[C3a (M)] -8,8.74 % Forskolin and 11.60 % Forskolin and 12.67 % Forskolin and 19.68 % Forskolin
same,cAMP response (% Forskolin),C3aR L82^2.64A; Log[C3a (M)] -9,57.84 % Forskolin and 63.09 % Forskolin and 70.46 % Forskolin and 87.20 % Forskolin
same,cAMP response (% Forskolin),C3aR L82^2.64A; Log[C3a (M)] -10,90.69 % Forskolin and 88.60 % Forskolin and 91.27 % Forskolin and 91.83 % Forskolin
same,cAMP response (% Forskolin),C3aR L82^2.64A; Log[C3a (M)] -11,96.32 % Forskolin and 92.63 % Forskolin and 98.10 % Forskolin and 96.40 % Forskolin
same,cAMP response (% Forskolin),C3aR L82^2.64A; Log[C3a (M)] -12,96.44 % Forskolin and 101.07 % Forskolin and 97.65 % Forskolin and 97.10 % Forskolin
same,"Mean Diff. of pIC50, WT vs. M106A",C3aR M106^3.36A; [1],0.034
same,cAMP response (% Forskolin),"C3aR M106^3.36A; M106A, Log[C3a (M)] -7",8.75 % Forskolin and 12.90 % Forskolin and 9.09 % Forskolin
same,cAMP response (% Forskolin),"C3aR M106^3.36A; M106A, Log[C3a (M)] -8",9.11 % Forskolin and 12.58 % Forskolin and 9.15 % Forskolin
same,cAMP response (% Forskolin),"C3aR M106^3.36A; M106A, Log[C3a (M)] -9",42.52 % Forskolin and 48.08 % Forskolin and 24.26 % Forskolin
same,cAMP response (% Forskolin),"C3aR M106^3.36A; M106A, Log[C3a (M)] -10",70.86 % Forskolin and 84.09 % Forskolin and 59.73 % Forskolin
same,cAMP response (% Forskolin),"C3aR M106^3.36A; M106A, Log[C3a (M)] -11",100.00 % Forskolin and 94.62 % Forskolin and 93.38 % Forskolin
same,cAMP response (% Forskolin),"C3aR M106^3.36A; M106A, Log[C3a (M)] -12",103.69 % Forskolin and 97.63 % Forskolin and 101.57 % Forskolin
same,ΔpIC50 ± SE of Diff.,C3aR M106^3.36A; M106^3.36A relative to WT C3aR,-0.03 ± 0.03
same,pIC50 (Replicate),"C3aR M106^3.36A; M106^3.36A, individual replicates",8.59 and 8.68 and 8.47 and 8.31
same,cAMP response (% Forskolin),"C3aR M106^3.36A; M1063.36A, Log[C3a (M)] -7",12.14 % Forskolin and 11.95 % Forskolin and 11.63 % Forskolin and 13.11 % Forskolin
same,cAMP response (% Forskolin),"C3aR M106^3.36A; M1063.36A, Log[C3a (M)] -8",15.30 % Forskolin and 16.36 % Forskolin and 17.61 % Forskolin and 30.65 % Forskolin
same,cAMP response (% Forskolin),"C3aR M106^3.36A; M1063.36A, Log[C3a (M)] -9",79.42 % Forskolin and 72.88 % Forskolin and 85.10 % Forskolin and 95.05 % Forskolin
same,cAMP response (% Forskolin),"C3aR M106^3.36A; M1063.36A, Log[C3a (M)] -10",93.61 % Forskolin and 101.94 % Forskolin and 98.48 % Forskolin and 102.99 % Forskolin
same,cAMP response (% Forskolin),"C3aR M106^3.36A; M1063.36A, Log[C3a (M)] -11",97.40 % Forskolin and 101.43 % Forskolin and 95.22 % Forskolin and 99.89 % Forskolin
same,cAMP response (% Forskolin),"C3aR M106^3.36A; M1063.36A, Log[C3a (M)] -12",100.17 % Forskolin and 94.23 % Forskolin and 92.07 % Forskolin and 95.27 % Forskolin
same,"Mean Diff. of pIC50, WT vs. Y174A",C3aR Y174^ECL2A; [1],0.586
same,cAMP response (% Forskolin),C3aR Y174^ECL2A; Log[C3a (M)] -7,9.91 % Forskolin and 12.64 % Forskolin and 15.55 % Forskolin and 17.18 % Forskolin and 6.28 % Forskolin
same,cAMP response (% Forskolin),C3aR Y174^ECL2A; Log[C3a (M)] -8,29.94 % Forskolin and 34.61 % Forskolin and 37.29 % Forskolin and 78.77 % Forskolin and 47.80 % Forskolin
same,cAMP response (% Forskolin),C3aR Y174^ECL2A; Log[C3a (M)] -9,93.29 % Forskolin and 98.24 % Forskolin and 97.28 % Forskolin and 106.07 % Forskolin and 106.88 % Forskolin
same,cAMP response (% Forskolin),C3aR Y174^ECL2A; Log[C3a (M)] -10,95.65 % Forskolin and 102.82 % Forskolin and 100.47 % Forskolin and 102.58 % Forskolin and 97.30 % Forskolin
same,cAMP response (% Forskolin),C3aR Y174^ECL2A; Log[C3a (M)] -11,98.42 % Forskolin and 110.81 % Forskolin and 110.05 % Forskolin and 103.42 % Forskolin and 89.46 % Forskolin
same,cAMP response (% Forskolin),C3aR Y174^ECL2A; Log[C3a (M)] -12,91.57 % Forskolin and 98.11 % Forskolin and 107.79 % Forskolin and 100.25 % Forskolin and 103.20 % Forskolin
same,ΔpIC50 ± SE of Diff.,C3aR Y174^ECL2A; Y174^ECL2A relative to WT C3aR,-0.59 ± 0.09
same,IC50,"C3aR Y174^ECL2A; Y174^ECL2A, dose-response plot, read-out: IC50",8.35 nM
same,pIC50 (Replicate),"C3aR Y174^ECL2A; Y174^ECL2A, individual replicates",8.26 and 8.28 and 8.32 and 7.39 and 7.92
same,pIC50 ± SEM (Mean),"C3aR Y174^ECL2A; Y174^ECL2A, mean of independent experiments",8.04
